The results in this text go back to article PMC8591604, “Targeting Oncogenic Src Homology 2 Domain-Containing Phosphatase 2 (SHP2) by Inhibiting Its Protein–Protein Interactions” (Journal of Medicinal Chemistry, 2021).

In assay [1] the target is N-SH2 domain of SHP2 (residues 2–111) (human) (UniProt Q06124).
For assay [2] the target is unchanged. This is another data set of the same source.
The target is the same in assay [3]. Description: fluorescence polarisation; fluorescence anisotropy, displacement: 0.10 nM CF-P9W5 (0.5 nM for P8 and OP) with […] N-SH2 titrated with unlabelled peptide; fluorescence buffer. Background: Fluorescence polarisation rises when a labelled molecule tumbles more slowly, as on binding a larger partner.

One may read the Kd as the equilibrium constant for the complex coming apart.

Like-named read-outs stand apart in the source and are kept apart here.

The substance “CF-P9, fluorescently labeled IRS-1 pY1172 analogue (nine residues) (peptide)” returned a Kd in assay [1] of 53 nM. Take “CF-P9Y0, unphosphorylated analogue of the labeled IRS-1 pY1172 peptide”: the Kd in assay [2] was determined as 6600 nM. “P8W5, P8 analogue with W at position +5 (peptide)” yielded a Kd in assay [3] of 1.6 nM.
